Experimental data reported in patent US20220340894A1 (CDR LIFE, published 2022).

Each binder was assayed against T1, HLA-A2/MAGE-A4 complex (HLA-A*02:01 extracellular domain, human β2m, MAGE-A4 peptide 230-239) (human, UniProt P04439 25-299 at identity 0.94); P61769 21-119) (assay: phage display biopanning and screening of the lambda and optimized kappa libraries).
T1 construct: also called MAGE-A4/HLA-A2 complex; pMHC

binding result | Binder
binds | M0852 scFv (scFv, Rabbit scFv from the biopanning screen) scFv: QQQLEESGGGLVTPGTPLTLTCTVSGFSLSNYAMGWVRQAPGKGLEWIGTINDGGTAFYANWLKGRFTISRTSTTVDLKITSPTTEDTATYFCARAYGSNGDVYWGYFNLWGQGTLVTVSSGGGGSGGGGSGGGGSGGGGASELVMTQTASPVSAAVGGTVTINCQASQSISSRSLSWYQQKPGQPPKLLIYEASKLASGVPSRFSGSGSGTQFTLTISGVQADDAATYYCQQGYSSSNVDNVFGGGTEVVVK
binds | M0851 scFv (scFv, Rabbit scFv from the biopanning screen) scFv: QEQLEESGGGLVTPGTPLTLTCTASGFSLSSYAMIWVRQAPGKGLEWIGTINDGGTAFYASWVKGRFTISRTSTTVDLKITSPTTEDTATYFCARAYGSNGDVYWGYVNLWGQGTLVTISSGGGGSGGGGSGGGGSGGGGASELVMTQTPSSVSAAVGGTVTINCQASQNIGSVFAWYQQKPGQPPKLLIYKASSLASGVPSRFKGSGSGTQFTLTISGVEAADAATYYCQQGASSSNVDNIFGGGTEVVVK
binds | M0865 scFv (scFv, Rabbit scFv from the biopanning screen) scFv: PAALMESGGRLVTPGTPLTLTCTVSGIDLSTFAMTWVRQAPGKGLEWLGIINTGGSAYYTSWAKGRFTISRTSTTVDLKITSPTTEDTATYFCARGDWSSATDLWGQGTLVTISSGGGGSGGGGSGGGGSGGGGASDPDMTQTPSSVSAAVGGTVTINCQASQSVYDNKVLAWYRQKPGQPPKLLIYKASTLASGVPSRFKGRGSGTQFTLTISGVQADDAATYYCLGEFSCSSADCHAFGGGTELEIL
binds | M0863 scFv (scFv, Rabbit scFv from the biopanning screen) scFv: PEQLMESGGGLVTPGGVLTLTCTASGFSFSSYGVNWVRQAPGKGLEWIGFIFGDGTTYYANWAKGRFTISKTSTTVDLKMTSPTTEDTATYFCARDGYGGYDYIINLWGQGTLVTVSSGGGGSGGGGSGGGGSGGGGASAQVLTQTPASVSAAVGGTVSISCQSSQSVVNNNWLAWYQQKPGQPPKLLIYKASTLESGVPSRFKGSGSGTQFTLTISGVQADDAATYYCQGAYSGNIYYNAFGGGTEVVVK
binds | M0857 scFv (scFv, Rabbit scFv from the biopanning screen) scFv: QQQLVESGGRLVTPGTPLTLTCTASGIDLNSNAMSWVRQGPGKGLEWIGDIWSGGYTDYASWAKGRFTISKTSTTVDLKMTSLTAADTATYFCARDRLAGDGVVDYDLWGQGTLVTISSGGGGSGGGGSGGGGSGGGGASELDMTQTPASVEVAVGGTVTIKCQASQNIYSNLAWYQQKPGQRPKLLIYGASTLASGVPSRFKGSGSGTEYTLTINGVQAADAATYYCQQGFSSSNVDNVFGGGTEVVVK
binds | M0849 scFv (scFv, Rabbit scFv from the biopanning screen) scFv: QEQLEESGGGLVTPGGTLTLTCTVSGFSLSNYAMGWVRQAPGKGLEWIGTINDGGTAFYAKWLKGRFTISRTSTTVDLKITSPTTEDTATYFCARAYGSNGDVYWGYFNLWGQGTLVTISSGGGGSGGGGSGGGGSGGGGASELVMTQTPSSVSEPVGGTVTIKCQASQSIGSNLAWYQQRPGQPPKLLIYSASTLASGVSSRFKGSGSGTESTLTISGVQAADAATYYCQQGYSSSNVDNVFGGGTELEIL
binds | M0866 scFv (scFv, Rabbit scFv from the biopanning screen) scFv: QSVKESGGRLVTPGTPLTLTCTASGFTISSSAISWVRQAPGKGLEYIGIIRSGGTTDYASWAKGRFAISKTSTTVDLKITSPTTEDTATYFCARDPPYITSTYFDLWGQGTLVTVSSGGGGSGGGGSGGGGSGGGGASELVLTQPQSVSGSLGQTVSISCKRARDSVESYDVHWYQQHPGKTPTIVIYKDDQRPSGVPDRFSGSIDSTSNSASLTITGLLAEDEADYFCQSFDGDAVVFGGGTQLTVTG
binds | M0860 scFv (scFv, Rabbit scFv from the biopanning screen) scFv: QSVKESGGRLVTPGTPLTLTCTVSGFSLSNYAMSWVRQAPGKGLEYIGIVSSGGTTYYASWAKGRFTISKTSTTVDLKITSPTTEDTATYFCAKDLYYGPTTYSAFNLWGQGTLVTISSGGGGSGGGGSGGGGSGGGGASELVLTQPQSVSGSLGQTVSISCKRARDNIEDYYVHWYQQYPGKTPTIVIYKDDQRPSGVPDRFSGSIDSTSNSASLTITGLLAEDEADYFCQSFDNNANVVFGGGTQLTVTG
binds | M0864 scFv (scFv, Rabbit scFv from the biopanning screen) scFv: QSVKESGGGLVTPGTPLTLTCTVSGFSLSTYAISWVRQAPGKGLEWIGFIDTVDSAYYASWAKGRFTISKTSSTTVDLKMTSPTTEDTATYFCAKLRYGDYGDYTLWGQGTLVTVSSGGGGSGGGGSGGGGSGGGGASELVMTQTPSPVSGAVGGTVTIKCQASQNIYSYLAWYQQKPGQPPKLLIYKASTLASGVPSRVKGSGSGTEYTLTISGVQAADAATYYCQCTYYDSNTFGGGTEVVVK
binds | M0848 scFv (scFv, Rabbit scFv from the biopanning screen) scFv: QEQLVESGGGLVTPGTPLTLTCTVSGFSLSSYAMGWVRQAPGKGLEWIGTINDGGTAFYASWVKGRFTISRTSTTVDLRVTSPTTEDTATYFCARAYGSNGDVYWGYFNLWGQGTLVTVSSGGGGSGGGGSGGGGSGGGGASELDLTQTPASVEVAVGGTVTIKCQASQSIGSYLSWYQQKPGQRPKLLIFRASTLASGVSSRFKGSGSGTQFTLTISGVECADAATYYCQQGYSSTNLDNVFGGGTEVVVK

Further lines, the binder ahead of its results:

Binder | binding result
M0862 scFv (scFv, Rabbit scFv from the biopanning screen) scFv: PEQLMESGGGLVTPGGVLTLTCTASGFSFSSYGVNWVRQAPGKGLEWIGFIFGDGTTYYANWAKGRFTISKTSTTVDLKMTSPTTEDTATYFCARDGYGGYDYIINLWGQGTLVTVSSGGGGSGGGGSGGGGSGGGGASAQVLTQTPASVSAAVGGTVSISCQSSQSVVNNNWLAWYQQKPGQPPKLLIYKASTLESGVPSRFKGSGSGTQFTLTISGVQADDAATYYCLGEFSCSSADCHAFGGGTELEIL | binds
M0859 scFv (scFv, Rabbit scFv from the biopanning screen) scFv: QSVKESGGRLVTPGTPLTLTCTVSGFSLSNYAMSWVRQAPGKGLEYIGIVSSGGTTYYASWAKGRFTISKTSTTVDLKITSPTTEDTATYFCAKDLYYGPTTYSAFNLWGQGTLVTISSGGGGSGGGGSGGGGSGGGGASELVLTQPQSVSGSLGQTVSISCKRARDNIEDYYVHWYQQHPGKTPTIVIHKDDQRPSGVPDRFSGSIDSTSNSASLTITGLLAEDEADYFCQSFDNDASPVFGGGTQLTVTG | binds
M0858 scFv (scFv, Rabbit scFv from the biopanning screen) scFv: QSVEESGGRLVTPGTPLTLTCTVSGFSLSNYAMSWVRQAPGKGLEYIGIVSSGGTTYYASWAKGRFTISKTSTTVDLKITSPTTEDTATYFCAKDLYYGPTTYSAFNLWGQGTLVTVSSGGGGSGGGGSGGGGSGGGGASELVLTQPQSVSGSLGQTVSISCKRARNNIEDYYVHWYQQHPGRSPTIVIHKDDQRPSGVPDRFSGSIDSTSNSASLTITGLLAEDEADYFCQSFDNNANPVFGGGTQLTVTG | binds
M0855 scFv (scFv, Rabbit scFv from the biopanning screen) scFv: QQQLEESGGGLVTPGTPLTLTCTVSGIDLSSYAMGWVRQAPGKGLEWIGTINDGGSAFYASWVKGRFTISRTSTTVDLKITSPTAEDTATYFCAKTYGTNGDVYWGYFNLWGQGTLVTISSGGGGSGGGGSGGGGSGGGGASELVMTQTPASVSEPVGGTVTIKCQASQSIGSNLAWYQQKPGQPPKLLIYYESILASGVPSRFSGSGSGTEYTLTISGAQADDAATYYCQQGYSSSNIDNAFGGGTEVVVK | binds
M0856 scFv (scFv, Rabbit scFv from the biopanning screen) scFv: QQQLEESGGGLVTPGTPLTLTCTVSGIDLSSYAMGWVRQAPGKGLEWIGTINDGGSAFYASWVKGRFTISRTSTTVDLKITSPTAEDTATYFCAKTYGTNGDVYWGYFNLWGQGTLVTISSGGGGSGGGGSGGGGSGGGGASELVMTQTPASVSEPVGGTVTIKCQASQSIGSNLAWYQQKPGQPPKLLIYYESILASGVPSRFSGSGSGTEYTLTISGAQADDAATYYCQQGYSSSNILNAFGGGTEVVVK | binds
M0850 scFv (scFv, Rabbit scFv from the biopanning screen) scFv: QEQLEESGGGLVTPGTPLTLTCTASGFSLSSYAMIWVRQAPGKGLEWIGTINDGGTAFYANWVKGRFTISRTSTTVDLKMTSPTTEDTATYFCARAYGSNGDVYWGYVNLWGQGTLVTVSSGGGGSGGGGSGGGGSGGGGASELVMTQTPASVSEPVGGTVTIKCQASQSIGSNLAWYQQKPGQPPKLLIYAAANLASGVSSRFKGSRSGTEYTLTISGVQAADAATYYCQQGYSSSNVANVFGGGTELEIL | binds
M0853 scFv (scFv, Rabbit scFv from the biopanning screen) scFv: QQQLVESGGGLVTPGTPLTLTCTVSGFSLSNYAMGWVRQAPGKGLEWIGTINDGGTAFYANWLKGRFTISRTSTTVDLKITSPTTEDTATYFCARAYGSNGDVYWGYFNLWGQGTLVTVSSGGGGSGGGGSGGGGSGGGGASELVMTQTASPVSAAVGGTVTINCQASQSISSRSLSWYQQKPGQPPKLLIYEASKLASGVPSRFSGSGSGTQFTLTISGVQADDAATYYCQQGYSSSNVDNFGGGTEVVVK | binds
M0861 scFv (scFv, Rabbit scFv from the biopanning screen) scFv: QSVKESGGRLVTPGTPLTLTCTVSGFSLSNYAMSWVRQAPGKGLEYIGIVSSGGTTYYASWAKGRFTISKTSTTVDLKITSPTTEDTATYFCAKDLYYGPTTYSAFNLWGQGTLVTISSGGGGSGGGGSGGGGSGGGGASELVLTQPASVQVNLGQTVSLTCTADTLSRSYASWYQLKPGQAPVLLIYRDTSRPSGVPDRFSGSSSGNTATLTISGAQAGDEGDYVCATSDGSGSNFQLFGGGTQLTVTG | binds
M0854 scFv (scFv, Rabbit scFv from the biopanning screen) scFv: QSVKESWGRLVTPGGSLTLTCTVSGIDLNNYAMGWVRQAPGKGLEWIGTINNDGATYYPSWARGRFTISKTSTTVDLKITSPTTEDTATYFCARTYGSNGDVYWGYFNLWGQGTLVTVSSGGGGSGGGGSGGGGSGGGGASALELTQTPASVEVAVGGTVTINCQASQSIGGALNWYQQKSGQPPKLLIYLASTLASGVSSRFKGSGSGTQFTLTISGVEAADAATYYCQQGYSASNIDNAFGGGTEVVVK | binds
